Measurements published in publication PMC8762332.

Columns and labels:
[1] = target: 40S ribosomal subunit in ribosome complexes (40S/PIC, monosomes, polysomes), marked by Rps2 (S. cerevisiae (endogenous in yeast)) (UniProt P25443); assay: co-sedimentation; yeast cultures crosslinked with 2% formaldehyde for 60 min on ice before lysis, 7.5–30% sucrose gradients (41,000 rpm, 5 h, SW-41), 0.63 ml fractions up to the 40S peak analysed by western blotting
[2] = target: 40S ribosomal subunit in ribosome complexes (40S/PIC, monosomes, polysomes), marked by Rps2 (S. cerevisiae (endogenous in yeast)) (UniProt P25443); assay: co-sedimentation; lysates of cycloheximide-treated yeast crosslinked with 1% formaldehyde (30 min on ice, quenched with 0.1 M glycine), 5–45% sucrose gradients, 10 fractions of 1 ml, western blotting of fractions (anti-His for eIF4B, Rps2, eIF4A, eIF4G)

Chain of UniProt P25443 (P25443 whole entry, looked up, tested part not stated, one chain of several): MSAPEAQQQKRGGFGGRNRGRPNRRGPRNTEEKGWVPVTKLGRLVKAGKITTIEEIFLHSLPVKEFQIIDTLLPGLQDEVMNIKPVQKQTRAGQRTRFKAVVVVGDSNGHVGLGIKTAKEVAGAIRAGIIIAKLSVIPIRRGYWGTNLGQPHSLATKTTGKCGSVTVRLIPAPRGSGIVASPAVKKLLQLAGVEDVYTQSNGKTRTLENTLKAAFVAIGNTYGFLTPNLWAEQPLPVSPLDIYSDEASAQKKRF

percent reduction of eIF4B in Rps2-containing fractions against WT [1] [%] | percent of the protein in fractions that lack 40S subunits and ribosomes [2] [%] | percent of the protein in Rps2/40S subunit-containing fractions [2] [%] | Molecule
93 | 80 |  | yeast eIF4B lacking the N-terminal domain, C-terminal hexahistidine tag (domain or fragment)
 |  | 55 | yeast eukaryotic initiation factor 4B, wild type, C-terminal hexahistidine tag (natural protein) MAPPKKTVKKMDLTSFLNDDTFGSSWAEEDVDLNKITIPIETANANTIPLSELAHAKNNSNNTRSGGFGGSFGGRSRLDPALGGGSSDRREEYPVPDAPPYRAVINNIPWDITPEGVQAWVEDGLVKPEAVEEVVLPKNLRDPTRLKGNAFVTLKERADLVAVLKFNGTKLNERTVYVSVAAPRRGGGADVDWSSARGSNFQGDGREDAPDLDWGAARGSNFRGPRREREEVDIDWTAARGSNFQGSSRPPRREREEVDIDWSAARGSNFQGSSRPPRREREEPDIDWSAARGSNFQSSSRPPRREREEPDIDWSAARGSNFQSSSRPPRREREKEEPALDWGAARGAQFGKPQQTKNTYKDRSLTNKKTTDEQPKIQKSVYDVLRTEDDDEDEEAEKQNGDAKENKVDAAVEKLQDKTAQLTVEDGDNWEVVGKK
